Measurements: the supplement of paper PMC10567573

B1: TBC1D10A (parent)
chain: WCLVQICEKYLPGYYSEKLEAIQL

Variants of: B1
Experiment: protein stability index of a GFP-peptide fusion (GPS, HEK-293T) (PSI 1-6); higher = more stable
Conditions: c terminus: a fixed tail appended
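Further: lentivirally expressed fusions sorted by FACS into six bins by GFP to DsRed ratio, PSI derived from sequencing read proportions per bin multiplied by bin number.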

Variant | protein stability index
WCLVQICLKYLPGYYSEKLEAIQL [E8L] | 4.41
WCLVQICTKYLPGYYSEKLEAIQL [E8T] | 2.34
WCLVQICQKYLPGYYSEKLEAIQL [E8Q] | 4.87
WCLVQICKKYLPGYYSEKLEAIQL [E8K] | 4.48
WCLVQICCKYLPGYYSEKLEAIQL [E8C] | 2.85
WCLVQICAKYLPGYYSEKLEAIQL [E8A] | 2.95
WCLVQICMKYLPGYYSEKLEAIQL [E8M] | 2.81
WCLVQICEKYEPGYYSEKLEAIQL [L11E] | 2.65
WCLVQICEKYPPGYYSEKLEAIQL [L11P] | 3.62
WCLVQICEKYDPGYYSEKLEAIQL [L11D] | 2.91
WCLVQICEKYIPGYYSEKLEAIQL [L11I] | 3.03
WCLVQICEKYCPGYYSEKLEAIQL [L11C] | 2.72
WCLVQICEKYSPGYYSEKLEAIQL [L11S] | 2.68
WCLVQICEKYLPGYYSEVLEAIQL [K18V] | 3.17
WCLVQICEKYLPGYYSERLEAIQL [K18R] | 2.22
WCLVQICEKYLPGYYSELLEAIQL [K18L] | 1.83
WCLVQICEKYLPGYYSEHLEAIQL [K18H] | 3.99
WCLVQICEKYLPGYYSEQLEAIQL [K18Q] | 1.91
WCLVQICEKYLPGYYSETLEAIQL [K18T] | 2
WCLVQICEKYLPGYYSEWLEAIQL [K18W] | 3.09
WCLVQICEKYLPGYYSEDLEAIQL [K18D] | 1.92
WCLVQICEKYLPGYYSECLEAIQL [K18C] | 3.08
WCLVQICEKYLPGYYSEMLEAIQL [K18M] | 2.98
WCLVQICEKYLPGYYSEILEAIQL [K18I] | 2.1

Variant | protein stability index
WCLVQICEKYLMGYYSEKLEAIQL [P12M] | 1.77
WCLVQICEKYLWGYYSEKLEAIQL [P12W] | 2.32
WCLVQICEKYLNGYYSEKLEAIQL [P12N] | 4.27
WCLVQICEKYLYGYYSEKLEAIQL [P12Y] | 2.66
WCLVQICEKYLTGYYSEKLEAIQL [P12T] | 1.62
WCLVQICEKYLSGYYSEKLEAIQL [P12S] | 3.84
WCLVQICEKYLKGYYSEKLEAIQL [P12K] | 2.12
WCLVQICEKYLIGYYSEKLEAIQL [P12I] | 2.32
WCLVQICEKYLPGYYSEKLEAIQT [L24T] | 2.55
WCLVQICEKYLPGYYSEKLEAIQK [L24K] | 3.14
WCLVQICEKYLPGYYSEKLEAIQH [L24H] | 1.14
WCLVQICEKYLPGYYSEKLEAIQA [L24A] | 3
WCLVQICEKYLPGYYSEKLEAIQW [L24W] | 2.98
WCLVQICEKYLPGYYSEKLEAIQV [L24V] | 2.38
WCLVQICEKYLPGYYSEKLEAIQF [L24F] | 3.24
WCLVQICEKYLPGYYSEKLEAIQD [L24D] | 2.69
WCLNQICEKYLPGYYSEKLEAIQL [V4N] | 1.57
WCLEQICEKYLPGYYSEKLEAIQL [V4E] | 2.09
WCLIQICEKYLPGYYSEKLEAIQL [V4I] | 2.23
WCLMQICEKYLPGYYSEKLEAIQL [V4M] | 3.23
WCLQQICEKYLPGYYSEKLEAIQL [V4Q] | 1.48
WCLGQICEKYLPGYYSEKLEAIQL [V4G] | 2.45
WCLTQICEKYLPGYYSEKLEAIQL [V4T] | 2.83
